Experiments:
[1] = molecular target: NanoBiT Gq: Gαq–LgBiT (wild type) co-expressed with Gβ1 and Gγ2, P50148;P62873;P59768; assay: NanoBiT assay (M3-SmBiT with Gαq–LgBiT, Gβ1, Gγ2), ACh titration; conditions: titrated concentrations of acetylcholine; parent: est. -0.1 (WT 1:4, expression-matched; WT 1:1 = 0); read off a plot
[2] = molecular target: NanoBiT Gq: Gαq–LgBiT (wild type) co-expressed with Gβ1 and Gγ2, P50148;P62873;P59768; assay: NanoBiT assay (M3-SmBiT with Gαq–LgBiT, Gβ1, Gγ2), basal; conditions: absence of agonist; parent: est. 78 (WT 1:4, expression-matched; WT 1:1 = 100); read off a plot

Substance	other: ΔpEC50 [1]	percent of parent [2]
ssHA-FLAG-M3-SmBiT (wild type), P20309 M3-6A (C-tail KKKRRK to AAAAAA)	-0.2	46 %RLU
ssHA-FLAG-M3-SmBiT (wild type), P20309 M3-GS (C-tail KKKRRK to GSGSGS)	-0.3	50 %RLU
